Assay results as given in patent US20050196758.

Target: T1, trans-2-butenoyl-ACP (acyl carrier protein carrying the trans-2-butenoyl group), P0A6A8
T1 chain: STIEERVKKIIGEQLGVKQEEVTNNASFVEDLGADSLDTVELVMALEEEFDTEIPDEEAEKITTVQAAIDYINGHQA

B1: His-tagged FabK (enoyl-ACP reductase II) of Streptococcus pneumoniae (protein)
chain: MKTRITELLKIDYPIFQGGMAWVADGDLAGAVSKAGGLGIIGGGNAPKEVVKANIDKIKSLTDKPFGVNIMLLSPFVEDIVDLVIEEGVKVVTTGAGNPSKYMERFHEAGIIVIPVVPSVALAKRMEKIGADAVIAEGMEAGGHIGKLTTMTLVRQVATAISIPVIAAGGIADGEGAAAGFMLGAEAVQVGTRFVVAKESNAHPNYKEKILKARDIDTTISAQHFGHAVRAIKNQLTRDFELAEKDAFKQEDPDLEIFEQMGAGALAKAVVHGDVDGGSVMAGQIAGLVSKEETAEEILKDLYYGAAKKIQEEASRWTGVVRND
specific activity (enoyl-ACP reductase activity, coupled in vitro assay, butyryl-ACP formation by gel electrophoresis): 66±4 nmole product formed/min/mg FabK
